Biological target: polypeptide N-acetylgalactosaminyltransferase 2 (GalNAc-T2), K75-Q571 (UniProt Q10471)
Assay: other fluorescence titration; tryptophan fluorescence quenching, 25 °C, GalNAc-T2 at 1 μM, peptides 1 to 500 μM, 25 mM Tris, 150 mM NaCl, pH 7.5; without UDP/Mn+2; single binding site model

polypeptide N-acetylgalactosaminyltransferase 2 (GalNAc-T2), K75-Q571, sequence (Q10471 75-571): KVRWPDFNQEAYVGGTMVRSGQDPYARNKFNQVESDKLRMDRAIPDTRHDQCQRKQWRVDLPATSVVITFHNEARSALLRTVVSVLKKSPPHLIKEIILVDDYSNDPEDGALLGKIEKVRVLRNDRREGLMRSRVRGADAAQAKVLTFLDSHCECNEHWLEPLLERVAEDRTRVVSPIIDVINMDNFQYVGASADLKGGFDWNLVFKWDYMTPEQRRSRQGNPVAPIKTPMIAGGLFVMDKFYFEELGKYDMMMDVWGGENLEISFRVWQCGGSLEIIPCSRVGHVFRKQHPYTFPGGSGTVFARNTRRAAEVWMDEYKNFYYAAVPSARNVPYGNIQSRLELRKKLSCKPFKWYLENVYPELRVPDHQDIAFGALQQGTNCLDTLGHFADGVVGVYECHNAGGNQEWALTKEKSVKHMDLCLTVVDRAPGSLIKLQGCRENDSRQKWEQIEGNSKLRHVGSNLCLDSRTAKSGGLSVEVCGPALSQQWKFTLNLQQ

fold change of Kd, without UDP/Mn+2 against with UDP/Mn+2: 4 fold
Substance: MUC5AC peptide (naked)

Reference: article PMC4432651, “Dynamic interplay between catalytic and lectin domains of GalNAc-transferases modulates protein O-glycosylation” (Nature Communications, 2015)
